Assay [1] addresses T1, human CD112R on GS-J2C/CD112R effector cells (human, UniProt Q6DKI7 1-326).
T1 sequence (looked up): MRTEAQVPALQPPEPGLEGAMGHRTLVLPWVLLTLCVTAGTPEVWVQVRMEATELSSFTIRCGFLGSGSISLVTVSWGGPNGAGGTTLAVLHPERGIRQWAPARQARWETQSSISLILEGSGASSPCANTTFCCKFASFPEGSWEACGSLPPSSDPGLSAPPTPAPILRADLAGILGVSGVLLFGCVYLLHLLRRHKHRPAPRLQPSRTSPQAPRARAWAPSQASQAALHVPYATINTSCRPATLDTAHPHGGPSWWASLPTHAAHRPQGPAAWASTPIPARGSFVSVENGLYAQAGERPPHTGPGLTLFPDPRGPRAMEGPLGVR
In words: cell-based or functional assay.

For assay [2], the target named is T2, human CD112R antigen protein huCD112R-His (Acro Biosysterm, PVG-H52H4) (human, UniProt Q6DKI7 41-171).
T2 construct: purchased; also called human antigen protein; not shown: His tag
T2 sequence (looked up): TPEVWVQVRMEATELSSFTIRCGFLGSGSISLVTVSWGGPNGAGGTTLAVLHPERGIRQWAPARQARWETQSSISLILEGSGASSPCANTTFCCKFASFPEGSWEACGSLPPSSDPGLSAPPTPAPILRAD
In words: ELISA, huCD112R-His coated on plate.

Assay [3] addresses T3, monkey antigen protein (monkey CD112R, Uniprot ID: A0A2K5WVV8) (monkey, UniProt A0A2K5WVV8 41-171).
T3 sequence: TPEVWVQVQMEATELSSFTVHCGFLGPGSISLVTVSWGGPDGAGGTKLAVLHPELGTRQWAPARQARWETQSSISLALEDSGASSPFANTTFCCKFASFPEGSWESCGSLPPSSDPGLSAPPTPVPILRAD
Nature of the assay: ELISA, monkey antigen protein (as Example 6.1).

The target in assay [4] is T2, human CD112R antigen protein …. In words: SPR (Biacore X100), antibody captured on Protein A chip, huCD112R-His as analyte, 1:1 Langmuir. On the technique in general: Surface plasmon resonance follows binding to a sensor surface in real time, without labels.
Assay [5] has as its target T4, human CD112R on antigen-specific CD8+ T cells (human, UniProt Q6DKI7 1-326).
T4 sequence (looked up): T1 sequence (looked up)
In words: cell-based or functional assay.

Changes are numbered by the printed parent chain. “And” between values parts separate entries of the source, which are not always exact repeats. Identical values can stand only once.

B1: C64 (antibody, human IgG1, kappa, V domains shown)
VH: EVMLVESGGDLVKPGGSLKLSCAASGFTFSSYFMSWVRQTPEKRLEWVATISGGGDKTYYLDILKGRFTISRDNAKNTLYLQMSSLRSEDTALYYCARHEDYAWYAMDYWGQGTSVTVSS
VL: QIVLTQSPAIMSASPGEKVTMTCSASSSVNYIYWYQQKPGSSPRLLIYDTSNLASGVPVRFSGSGSGTSYSLTISRMEAEDAATYYCQQWSSYPLTFGAGTKLELKR
In general, EC50 refers to the concentration that produces a half-maximal response. As usually defined, the Kd is the equilibrium constant for the complex coming apart. For the molecule B1, the “EC50 (Blocking effects of the antibodies, reporter gene method)” value in assay [1] was found to be 0.039 µg/mL. In addition, the figures for the EC50 in assay [2] and in assay [3] were 34 pM and 54 pM, respectively. This molecule also had a Kd in assay [4] of 800 pM.

B2: C63 (antibody, human IgG1, kappa, V domains shown)
VH: EVMLVESGGGLVKPGGSLKLSCAASGFIFSSYIMSWVRQTPEKRLEWVATIRGGGGNTYYLDSVKGRFIISRDNAKNNLYLQMSSLRSEDTALYYCARHEDYEWYAMDNWGQGTSVTVSS
VL: B1 VL with M21L, S26R, N30S, I32M, R44K
In the case of B2, in assay [1], the “EC50 (Blocking effects of the antibodies, reporter gene method)” value was 0.023 µg/mL. Also, the concentration for a half-maximal effect (EC50) in assay [2] was 54 pM; in assay [3], 90 pM. For the same molecule, the Kd in assay [4] is 488 pM.

B3: C62 (antibody, human IgG1, kappa, V domains shown)
VH: EVMLVESGGGLVKPGGSLKLSCAASGFSFSSYSMSWVRQTPEKRLECVATIGGVGGNTYYPDSVKGRFSISRDNAKNTLYLQMSSLRSEDTALYYCARHEDYYYYAMDYWGQGTSVTVSS
VL: B1 VL with S26N, S28T, N30S, S71Y, Y93F, L95F, A99S, L105I
Consider B3, for which, in assay [1], the “EC50 (Blocking effects of the antibodies, reporter gene method)” value came out at 0.032 µg/mL. Besides, the EC50 in assay [2] stood at 32 pM; in assay [3], 43 pM. Moreover, the Kd in assay [4] was 704 pM and 571 pM.

B4: C138 (antibody, human IgG1, kappa, V domains shown)
VH: EVQLVESGGGLVKPGGSLKLSCAASGFTFSSYAMSWVRQTPAKRLEWVATITSGDIRTYYPDTVKGRFTISRDNAKNTLYLQMRSLRSEDTAMYYCVGHDDFHFYAMDYWGQGTSVTVSS
VL: B1 VL with N30S, I32L, I74L
For the molecule B4, the “EC50 (Blocking effects of the antibodies, reporter gene method)” value in assay [1] was 0.029 µg/mL. For the same molecule, the EC50 was found to be 39 pM in assay [2] and 52 pM in assay [3]. Besides, in assay [4], the Kd was determined as 550 pM.

B5: C71 (antibody, human IgG1, kappa, V domains shown)
VH: B1 VH with M3I, D10G, L18R, K57N, L61P, I63S, L64V, A103E
VL: B1 VL with A13T, N30S, S91T
In the case of B5, the “EC50 (Blocking effects of the antibodies, reporter gene method)” value in assay [1] amounted to 0.029 µg/mL. The results for the EC50 in assay [2] and in assay [3] were 37 pM and 50 pM, respectively. The molecule further came in with a Kd in assay [4] of 158 pM.

B6: C124 (antibody, human IgG1, kappa, V domains shown)
VH: EVQLVESGGGLVKPGGSLKLSCAASGFTFSSFAMSWVRQTPAKRLESVATINNGGINTYYPDTVKGRFTVSRDNAKNTLYLQMSSLRSEDTAMYYCARHDDFLYYAMDYWGQGTSVTVSS
VL: B1 VL with N30S, I32M, S91T
Turning to B6, the “EC50 (Blocking effects of the antibodies, reporter gene method)” value in assay [1] is 0.015 µg/mL. The EC50 in assay [2] came to 33 pM; in assay [3] it was 59 pM. Moreover, in assay [4], the Kd was determined as 243 pM.

B7: C129 (antibody, human IgG1, kappa, V domains shown)
VH: QVQLQQSGAELMTPGSSVKLSCKATGYTFTDYWIEWVKKRPGHGLEWIGEILPGYISTNYNEKFKDKATFTADTSSNTTYMQLSSLTSEDSAVYYCVLIVTTYYYFMDYWGQGTSVTVSS
VL: QIVLTQSPAIMSASPGEKVTITCSASSSVTYMHWFQQKPGTSPKLWIYSTSNLASGVPVRFSGSGSGTSYSLTISRMEAEDAATYYCQQRSSYPWTFGGGTKLEIKR
For the molecule B7, the “EC50 (Blocking effects of the antibodies, reporter gene method)” value in assay [1] was found to be 0.045 µg/mL. Further, the concentration for a half-maximal effect (EC50) in assay [2] was determined as 34 pM. This molecule returned an equilibrium dissociation constant (Kd) in assay [4] of 375 pM.

B8: anti-CD112R antibody CHA.7.518 (antibody, V domains shown)
VH: QVQLVQSGAEVKKPGASVKVSCKASGYTFTDYNINWVRQAPGQGLEWMGYIYPYIGGSGYAQKFQGRVTMTRDTSTSTVYMELSSLRSEDTAVYYCAREDKTARNAMDYWGQGTLVTVSS
VL: DIQMTQSPSSLSASVGDRVTITCRVSENIYSNLAWYQQKPGKAPKLLIYEATNLAEGVPSRFSGSGSGTDFTLTISSLQPEDFATYYCQHFWGTPYTFGQGTKLEIKR
notes: synthesised according to WO/2016/134333; also called Tab-1; Tab 1
Consider B8, for which the “EC50 (Blocking effects of the antibodies, reporter gene method)” value in assay [1] turned out to be 0.065 µg/mL. The same molecule came in with an EC50 in assay [2] of 34 pM. In assay [5], the “IFN-γ(pg/ml) at 0.5µg/ml antibody” value came out at 696 pg/mL, the “IFN-γ(pg/ml) at 5µg/ml antibody” value amounted to 718 pg/mL and the “IFN-γ(pg/ml) at 50µg/ml antibody” value was determined as 763 pg/mL. In addition, in assay [4], the Kd is 346 pM.

B9: C67 (antibody, human IgG1, kappa, V domains shown)
VH: EAQLQQSGPELVKPGASVKISCKASGYTFTDYYMNWVKQSHGKSLDWIGDINPDNGGSTYNQKFKGKATLTVDKSSSTAYMELRSLTSEDSAVYYCSASGPPYVLLDYWGQGTSVIVSS
VL: DIQMTQSPASLSASVGETVTITCQTSENIYSYLAWYQQKQGKSPQLLVYNTQTLAEGVPSRFSGSRSGAQFSLKINSLQPEDFGSYYCQHHYGVPLTFGAGTKLELKR
On to B9, for which the “EC50 (Blocking effects of the antibodies, reporter gene method)” value in assay [1] amounted to 0.03 µg/mL. Further, the EC50 in assay [2] was 60 pM; in assay [3], 80 pM. In assay [4], this molecule had a Kd of 20 pM.

B10: C55 (antibody, human IgG1, kappa, V domains shown)
VH: EVQLQQSGPELVKPGASVKISCKASGYTFTDYYMSWVKQSHGKSLEWIGDVNPNNGDTSYNQKFKGKATLTVDKSSSTAYMELRSLTSEDSAVYYCAASGLPYVLMDYWGQGTSVTVSS
VL: B9 VL with Q24R, T25A, Y30N, Q52K, A55T, G57D, R66G, A69T, V94T, A100G
Consider B10, for which the “EC50 (Blocking effects of the antibodies, reporter gene method)” value in assay [1] was determined as 0.052 µg/mL. The EC50 is 56 pM in assay [2] and 1290 pM in assay [3]. For the same molecule, the Kd in assay [4] was 506 pM and 334 pM.

B11: C57 (antibody, human IgG1, kappa, V domains shown)
VH: EVQLQQSGPVLVKPGASVKMSCKASGYIFTDYYMHWVKQSHGKSLEWIGIINPYNGDTSYNQKFKDKATLTVDKSSSTAYMELNSLTSEDSAVYYCARDSSNVGNAMDYWGQGTSVTVSS
VL: DIQMTQTTSSLSASLGDRVTISCRASQDISNYLNWYLQKPDGTIKLLIYYSSRLHSGVPSRFSGSGSGTDYSLTISNLEQEDIATYFCQQGYTLPRTFGGGTKLEIIR
Consider B11, for which, in assay [1], the “EC50 (Blocking effects of the antibodies, reporter gene method)” value worked out at 0.061 µg/mL. For the same molecule, the half-maximal effective concentration (EC50) in assay [2] is 34 pM; in assay [3] it was 77 pM. Also, in assay [4], the Kd is 130 pM and 219 pM.

B12: C152 (antibody, human IgG1, kappa, V domains shown)
VH: QVQLQQSGTILARPGASVKMSCRASDYTFTDYWIQWIKQRPGQGLEWIGAIFPENGDTRYTQKFKGRATLTADKSSSTAYMQVNSLTSEDSAVYYCATFINYVDYWGQGTTLTVSS
VL: QIVLIQSPAIMSASPGEKVTMTCSASSSVNNIHWYQQKSGTSPKRWIYDTTKLTSGVPARFSGSGSGTSYSLTISSMEAEDAATYYCQQWNINPYTFGGGTKLEIKR
For the molecule B12, the “EC50 (Blocking effects of the antibodies, reporter gene method)” value in assay [1] worked out at 0.082 µg/mL. Further, the half-maximal effective concentration (EC50) came out at 82 pM in assay [2] and 74 pM in assay [3]. For the same molecule, the Kd in assay [4] was 274 pM.

B13: C155 (antibody, human IgG1, kappa, V domains shown)
VH: EVQLVESGGGLVKPGGSLRLSCAASGFTFSDYYMYWVRQAPGKGLEWVATISDAGGYTYYPDSVKGRFTISRDNAKNSLYLQMNSLRAEDTAVYYCGREDLWGQGTLVTVSS
VL: DIQMTQSPSSLSASVGDRVTITCRASQDIGYSLNWFQQKPGKAPRRLIYATSRLDSGVPKRFSGSGSGTDFTLTISSLQPEDFATYYCLQYASFPYTFGGGTKLEIKR
B13: in assay [1], the “EC50 (Blocking effects of the antibodies, reporter gene method)” value turned out to be 0.082 µg/mL. Besides, in assay [4], the Kd was 603 pM.

B14: C154 (antibody, human IgG1, kappa, V domains shown)
VH: B13 VH with A49S, G97A
VL: B13 VL with R45K
As to B14, the “EC50 (Blocking effects of the antibodies, reporter gene method)” value in assay [1] amounted to 0.071 µg/mL. Besides, the Kd in assay [4] was found to be 724 pM.

B15: C156 (antibody, human IgG1, kappa, V domains shown)
VH: B13 VH with Y95F
VL: B13 VL with R45K
In the case of B15, the “EC50 (Blocking effects of the antibodies, reporter gene method)” value in assay [1] was 0.096 µg/mL. Moreover, the Kd in assay [4] was 946 pM.

B16: C132 (antibody, human IgG1, kappa, V domains shown)
VH: QVQLQQSGAELMKPGSSVNLSCKATDYTFTDYWINWVKQRPGHGLEWIGEILPGSVTTNYNEKFRGKATFTADTSSNTAYMQLSSLTSEDSAVYFCARGSDYSYYAMDYWGQGTSVTVSS
VL: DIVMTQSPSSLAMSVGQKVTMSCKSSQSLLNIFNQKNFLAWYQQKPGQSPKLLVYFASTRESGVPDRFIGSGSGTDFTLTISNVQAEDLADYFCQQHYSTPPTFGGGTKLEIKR
For B16, the “EC50 (Blocking effects of the antibodies, reporter gene method)” value in assay [1] came out at 0.024 µg/mL. The EC50 in assay [2] came to 38 pM; in assay [3] it was 94 pM. This molecule registered a Kd in assay [4] of 156 pM.

The values above are taken from EP4644419A1 (Hangzhou Zhongmeihuadong Pharmaceutical Co., Ltd., dated 2025).
